# Patent publication US20250297232A1, “BACTERIAL MYELOPEROXIDASE-CATALASE AND APPLICATIONS THEREOF” (priority 2022, published 2025)
# B1: wt RbMPO: novel bacterial heme peroxidase (myeloperoxidase-catalase) of about 78 KDa from Rhodopirellula baltica, SEQ ID NO: 1, produced recombinantly in E. coli (protein, listed as Rhodopirellula baltica)
# chain: MLFWSKRTRKHPGRKRRRLRSEQLESRQLLAADFGGYRHNIYDAEDVNDDGRVSAIDALLVINAMTSETSRDENVFTDVNGDGRRSALDALRVINRIERGDVFPIDTSGDEDLNTLLPEMPSEVRSIDGSGNNPNDHLWGSVGQRLIRMAPAAYGDGISTLAGANRPSAREVSNVLSAMNTSQVLNDRGLSAFVYVWGQFIDHDLGLTESDEHGEAIDISVPEGDLWFDPMGSGEAVIPMTRTPIADGTGTSVGNPAQQFNQITAFIDGSMVYGSDAATAERLRTFAGGRLAISDNGLLPMDESGMVIAGDVRASENVGLTAIQTLFVREHNRLADEIFAADPEATDEEIYQRARLVVASLIQSITYNEFLPALLGQRAMDSYRGYDASVNPGIANEFSTAAFRLGHSTLRDEVGFMSNDGRESKDEMELKDAFFHASMLEETGIDSLLKFDASVQAQEIDLAVVDSLRNFLFGPPGAGGLDLVAMNIQRGRDHGLSDYNTTRQAYGLDRVETFDQITGDVELQQKLASLYGTVDNIDLWVGLMAEDHQHDASVGELTGLIIADQFQRTRDGDRFFYKNVLTDSEVESIERSTLADLIERNTSVDGLQENVFFMQVELRGRVILASSIPPNTMPSEVREEEIRGVSGMAIELIDASGKLVDSTVSDQHGNYRFRALSETGDYQVRLSESGEAMDVLVAHGAERIRGLDFIVLA
# Experiments:
# [1] = Steady-state kinetics by stopped-flow, NaSCN (hypothiocyanate formation, 240 nm); assay type: biochemical; settings: for kss: SCN^− 5 mM, 267 nM RbMPO, H2O2 79 μM
# Description: pH- and temperature-dependent studies were carried out for each substrate.
# These temperatures were reached by using a stopped-flow coupled to a cryostat.
# For temperature and pH measurements, RbMPO was set at the same concentration as in the determination of steady state kinetics parameters.
# [2] = Heme reconstitution of apo wt and mutated RbMPOs (tryptophan fluorescence quenching); assay type: binding; settings: heme reconstitution of apo enzyme; 1 μM enzyme, 50 mM sodium phosphate pH7.5, 25° C.
# Description: Sample dilutions were performed in a 50 mM pH7.5 sodium phosphate buffer.
molecule,measurement,setting,value
B1,kss,"[1]; 37° C., pH 4",0.7 ± 0.04 s⁻¹
same,kss,"[1]; 37° C., pH 5",5.4 ± 0.02 s⁻¹
same,kss,"[1]; 37° C., pH 6",27.0 ± 0.06 s⁻¹
same,kss,"[1]; 37° C., pH 7",42.8 ± 0.13 s⁻¹
same,kss,"[1]; 37° C., pH 8",20.4 ± 0.03 s⁻¹
same,kss,"[1]; 37° C., pH 9",3.1 ± 0.02 s⁻¹
same,kss,"[1]; 37° C., pH 10",0 ± 0 s⁻¹
same,kss,"[1]; pH 7.5, 10° C.",5.0 ± 0.01 s⁻¹
same,kss,"[1]; pH 7.5, 20° C.",37.6 ± 0.10 s⁻¹
same,kss,"[1]; pH 7.5, 30° C.",56.3 ± 0.10 s⁻¹
same,kss,"[1]; pH 7.5, 37° C.",63.2 ± 0.11 s⁻¹
same,kss,"[1]; pH 7.5, 40° C.",55.5 ± 0.14 s⁻¹
same,kss,"[1]; pH 7.5, 50° C.",56.5 ± 0.14 s⁻¹
same,kss,"[1]; pH 7.5, 60° C.",67.2 ± 0.22 s⁻¹
same,substrate specificity,"[1]; from steady-state NaSCN, NaBr and NaCl ranges",SCN^−>Br^−>Cl^−
same,k2,[2],1430 ± 74.4 M⁻¹ s⁻¹
